According to PMC4046507 (2014):

Biological target: T1, proteolipoprotein (PLP), substituted analog peptide on I-Ag7 (mouse, substituted analog of PLP 56-70 carrying lysine for tyrosine at positions 57 and 59 (residues worked out from the printed peptide and this description; the analog's own residues are not given))
T1 peptide: DKEKLINVIHAFQYV
Test: cytokine release

B1: Th2-derived TCRαβ transgenic receptor (TRAV17 TRAJ50 / TRBV31 TRBJ2-3) (TCR)
alpha TRAV17 TRAJ50 CDR3: CALEGIASSSFSKLVF
beta TRBV31 TRBJ2-3 CDR3: CAWSLGGGAETLYF
**Q.** Does B1 bind?
**A.** Result: recognises
